Experimental data: paper PMC4049620

Key:
[1] = molecular target: T9 SipA_(36-173), N-terminally His-tagged (entire extracellular region of SipA from S. pyogenes serotype T9 strain 90/306S) (Streptococcus pyogenes serotype T9 strain 90/306S); assay: crystal structure; Space group P6_(4)22, two molecules in the asymmetric unit; octamer built by crystal symmetry; crystals grown at 18°C from 1 M NaKPO4 pH 7.0, 8% MPD
[2] = molecular target: T9 SipA_(36-173), N-terminally His-tagged (entire extracellular region of SipA from S. pyogenes serotype T9 strain 90/306S) (Streptococcus pyogenes serotype T9 strain 90/306S); assay: SAXS; Australian Synchrotron SAXS/WAXS beamline; dilution series 1-20 mg/ml; experimental curve compared by CRYSOL with the curve calculated from the crystal octamer (chi^2 = 1.29)
[3] = molecular target: T9 SipA_(36-173), N-terminally His-tagged (entire extracellular region of SipA from S. pyogenes serotype T9 strain 90/306S) (Streptococcus pyogenes serotype T9 strain 90/306S); assay: SEC + other: dynamic light scattering; Superdex S200 10/300 in 10 mM Tris.Cl pH 8.0, 100 mM NaCl; single peak, species of about 150 kDa after glycine treatment; data not shown

Measured: stoichiometry N

T9 SipA_(36-173), N-terminally His-tagged (entire extracellular region of SipA from S. pyogenes serotype T9 strain 90/306S) (domain or fragment)
8: all assays above
